Assays:
[1] = molecular target: GAL4 activation domain-Tsg101 fusion protein (wild-type human Tsg101) (yeast; human) (UniProt Q99816); assay: yeast 2-hybrid, β-galactosidase; p1-p6 variant with Tsg101
[2] = molecular target: GAL4 DNA-binding domain-p1-p6 fusion protein (yeast; human immunodeficiency virus type 1 (HIV-1)) (UniProt P04386); assay: yeast 2-hybrid, β-galactosidase; Tsg101 variant with p1-p6

GAL4 activation domain-Tsg101 fusion protein (wild-type human Tsg101) (yeast; human), sequence (Q99816 whole entry, the tested form may be a part): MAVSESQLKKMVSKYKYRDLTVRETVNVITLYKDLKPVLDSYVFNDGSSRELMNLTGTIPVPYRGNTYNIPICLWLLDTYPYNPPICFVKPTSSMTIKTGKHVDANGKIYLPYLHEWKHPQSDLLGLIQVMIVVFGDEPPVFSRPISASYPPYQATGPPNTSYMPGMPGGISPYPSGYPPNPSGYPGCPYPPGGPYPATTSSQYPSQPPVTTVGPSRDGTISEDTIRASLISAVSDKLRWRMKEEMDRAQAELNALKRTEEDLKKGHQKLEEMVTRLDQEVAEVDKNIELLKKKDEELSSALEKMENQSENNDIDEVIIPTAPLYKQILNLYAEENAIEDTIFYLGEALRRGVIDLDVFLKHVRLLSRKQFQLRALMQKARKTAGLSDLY

In the case of “GAL4 DNA-binding domain-p1-p6 with the (LXX)4 repeat motif deleted (from UniProt P04386 1-147; P03347 435-512)”, the β-galactosidase activity, % of the wild-type level (% of wild-type) [1] is reported as 55.
In the case of “GAL4 DNA-binding domain-p1-p6 with the first PTAPP motif deleted (from UniProt P04386 1-147; P03347 435-512)”, the β-galactosidase activity, % of wild-type protein binding (% of wild-type) [1] is reported as 50.
In the case of “GAL4 DNA-binding domain-p1-p6 with the first PTAPP motif deleted and Ala for Pro7 in the second motif (from UniProt P04386 1-147; P03347 435-512)”, the β-galactosidase activity, % of wild-type (% of wild-type) [1] is reported as 25.
“GAL4 DNA-binding domain-p1-p6 with the second PTAPP motif deleted (from UniProt P04386 1-147; P03347 435-512)” showed a β-galactosidase activity, % of wild-type protein binding (% of wild-type) [1] of 25.
In the case of “GAL4 activation domain-Tsg101 Y110W (from UniProt Q99816 1-390)”, the p6 interaction, % of wild-type (% of wild-type) [2] is reported as 31.
In the case of “GAL4 activation domain-Tsg101 Y113V (from UniProt Q99816 1-390)”, the binding, % of wild-type (% of wild-type) [2] is reported as 33.
Work on “GAL4 activation domain-Tsg101 with Ala for Thr-Tyr-Asn (67-69) (from UniProt Q99816 1-390)” yielded a binding, % of the wild-type level (% of wild-type) [2] of 5.

Reference: US7494767
